{"source": "paper PMC3000947", "proteins": {"B1": {"name": "Fur7 (Streptomyces sp. KO-3988) (protein)", "chain": "MPGTDDVAVDVASVYSAIEKSAGLLDVTAAREVVWPVLTAFEDVLEQAVIAFRVATNARHEGDFDVRFTVPEEVDPYAVALSRSLIAKTDHPVGSLLSDIQQLCSVDTYGVDLGVKSGFKKVWVYFPAGEHETLARLTGLTSMPGSLAGNVDFFTRYGLADKVDVIGIDYRSRTMNVYFAAPSECFERETVLAMHRDIGLPSPSEQMFKFCENSFGLYTTLNWDTMEIERISYGVKTENPMTFFARLGTKVEHFVKNVPYGVDTQKMVYAAVTSSGEEYYKLQSYYRWRSVSRLNAAYIAARDKEST"}}, "key": {"[1]": {"substrate": "O=C1C(O)=CC(=O)c2c(O)cc(O)cc21", "experiment": "purified protein", "settings": "2 mM GPP, 50 mM Hepes-NaOH pH 7.5, 5 mM MgCl2, 30 °C"}, "[2]": {"substrate": "Oc1cc(O)c2ccccc2c1", "experiment": "purified protein", "settings": "2 mM GPP, 50 mM Hepes-NaOH pH 7.5, 5 mM MgCl2, 30 °C"}}, "data": [{"protein": "B1", "values": [{"measurement": "Km", "setting": "[1]", "result": "48 ± 2", "unit": "µM"}, {"measurement": "kcat", "setting": "[1]", "result": "28 ± 3 × 10^-3 s^-1"}, {"measurement": "kcat/Km", "setting": "[1]", "result": 580, "unit": "M⁻¹ s⁻¹"}, {"measurement": "Km", "setting": "[2]", "result": "320 ± 20", "unit": "µM"}, {"measurement": "kcat", "setting": "[2]", "result": "0.13 ± 0.05 × 10^-3 s^-1"}, {"measurement": "kcat/Km", "setting": "[2]", "result": 0.41, "unit": "M⁻¹ s⁻¹"}]}]}
